Test system: Escherichia coli TOP10
Assay: shrunken log2 fold change of peptide-encoding DNA abundance (4.5 h post-induction vs induction); higher = less antimicrobial activity (less host growth inhibition)
Settings: time post-induction: 4.5 h; library: site-saturation at positions 5, 18, 19, 20
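Note: peptides expressed intracellularly from a pBAD plasmid library in pooled LB shake-flask culture, induced with 0.3% L-arabinose, DNA abundance read by NGS, three biological replicates, DESeq2 with apeglm shrinkage.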

RRIRHRPPRLPRPRPRPYWPPRP
shrunken log2 fold change: -0.306

RRIRHRPPRLPRPRPRPYWQPRP
shrunken log2 fold change: -0.0678

RRIRHRPPRLPRPRPRPYYRPRP
shrunken log2 fold change: -0.0075

RRIRIRPPRLPRPRPRPAAMPRP
shrunken log2 fold change: 0.391

RRIRIRPPRLPRPRPRPAAVPRP
shrunken log2 fold change: -0.181

RRIRIRPPRLPRPRPRPAAYPRP
shrunken log2 fold change: -0.919

RRIRIRPPRLPRPRPRPACDPRP
shrunken log2 fold change: -0.0913

RRIRIRPPRLPRPRPRPACEPRP
shrunken log2 fold change: 0.17

RRIRIRPPRLPRPRPRPACGPRP
shrunken log2 fold change: 0.271

RRIRIRPPRLPRPRPRPACYPRP
shrunken log2 fold change: -0.472

RRIRIRPPRLPRPRPRPAEYPRP
shrunken log2 fold change: 0.0308

RRIRIRPPRLPRPRPRPAFMPRP
shrunken log2 fold change: -0.3

RRIRIRPPRLPRPRPRPAGCPRP
shrunken log2 fold change: -0.0691

RRIRIRPPRLPRPRPRPAGNPRP
shrunken log2 fold change: -0.0516

RRIRIRPPRLPRPRPRPAHDPRP
shrunken log2 fold change: 0.0246

RRIRIRPPRLPRPRPRPAHKPRP
shrunken log2 fold change: 0.0491

RRIRIRPPRLPRPRPRPAHRPRP
shrunken log2 fold change: -0.133

RRIRIRPPRLPRPRPRPAIFPRP
shrunken log2 fold change: -0.102

RRIRIRPPRLPRPRPRPAIKPRP
shrunken log2 fold change: -0.265

RRIRIRPPRLPRPRPRPAMAPRP
shrunken log2 fold change: -0.237

RRIRIRPPRLPRPRPRPAMIPRP
shrunken log2 fold change: 0.0156

RRIRIRPPRLPRPRPRPANEPRP
shrunken log2 fold change: 0.158

RRIRIRPPRLPRPRPRPANLPRP
shrunken log2 fold change: -0.584

RRIRIRPPRLPRPRPRPANQPRP
shrunken log2 fold change: -0.693

RRIRIRPPRLPRPRPRPAPKPRP
shrunken log2 fold change: 0.187

RRIRIRPPRLPRPRPRPAQFPRP
shrunken log2 fold change: 0.0396

RRIRIRPPRLPRPRPRPAQMPRP
shrunken log2 fold change: -0.0791

RRIRIRPPRLPRPRPRPASCPRP
shrunken log2 fold change: -0.1

RRIRIRPPRLPRPRPRPASFPRP
shrunken log2 fold change: -0.167

RRIRIRPPRLPRPRPRPATFPRP
shrunken log2 fold change: -0.658

RRIRIRPPRLPRPRPRPATMPRP
shrunken log2 fold change: -0.0977

RRIRIRPPRLPRPRPRPAVGPRP
shrunken log2 fold change: 0.455

RRIRIRPPRLPRPRPRPAVKPRP
shrunken log2 fold change: -0.0893

RRIRIRPPRLPRPRPRPAVMPRP
shrunken log2 fold change: -0.129

RRIRIRPPRLPRPRPRPAWCPRP
shrunken log2 fold change: -0.0802

RRIRIRPPRLPRPRPRPAWVPRP
shrunken log2 fold change: 0.0748

RRIRIRPPRLPRPRPRPAWWPRP
shrunken log2 fold change: 0.0406

RRIRIRPPRLPRPRPRPCAQPRP
shrunken log2 fold change: -0.485

RRIRIRPPRLPRPRPRPCCNPRP
shrunken log2 fold change: -0.0118

RRIRIRPPRLPRPRPRPCCYPRP
shrunken log2 fold change: -0.495

RRIRIRPPRLPRPRPRPCGAPRP
shrunken log2 fold change: -0.25

RRIRIRPPRLPRPRPRPCGFPRP
shrunken log2 fold change: -0.0835

RRIRIRPPRLPRPRPRPCHIPRP
shrunken log2 fold change: -0.149

RRIRIRPPRLPRPRPRPCHWPRP
shrunken log2 fold change: -0.0328

RRIRIRPPRLPRPRPRPCIIPRP
shrunken log2 fold change: -0.467

RRIRIRPPRLPRPRPRPCLCPRP
shrunken log2 fold change: 2.05

RRIRIRPPRLPRPRPRPCLNPRP
shrunken log2 fold change: -0.0496

RRIRIRPPRLPRPRPRPCLRPRP
shrunken log2 fold change: -1.04

RRIRIRPPRLPRPRPRPCLSPRP
shrunken log2 fold change: -0.0164

RRIRIRPPRLPRPRPRPCLVPRP
shrunken log2 fold change: -0.687

RRIRIRPPRLPRPRPRPCMDPRP
shrunken log2 fold change: -0.695

RRIRIRPPRLPRPRPRPCMEPRP
shrunken log2 fold change: -0.799

RRIRIRPPRLPRPRPRPCNTPRP
shrunken log2 fold change: -0.0252

RRIRIRPPRLPRPRPRPCQMPRP
shrunken log2 fold change: -0.111

RRIRIRPPRLPRPRPRPCRNPRP
shrunken log2 fold change: -0.604

RRIRIRPPRLPRPRPRPCSMPRP
shrunken log2 fold change: -0.00947

RRIRIRPPRLPRPRPRPCSNPRP
shrunken log2 fold change: -0.11

RRIRIRPPRLPRPRPRPCTVPRP
shrunken log2 fold change: -0.337

RRIRIRPPRLPRPRPRPCTWPRP
shrunken log2 fold change: -0.227

RRIRIRPPRLPRPRPRPCVDPRP
shrunken log2 fold change: -0.0909

— the supplement of paper PMC9112550, “Optimization of the antimicrobial peptide Bac7 by deep mutational scanning” (BMC Biology, 2022)
